# B1: K-FGF-140 (truncated K-FGF) (ligand)
# chain: AAVQSGAGDYLLGIKRLRRLYCNVGIGFHLQALPDGRIGGAHADTRDSLLELSPVERGVVSIFGVASRFFVAMSSKGKLYGSPFFTDECTFKEILLPNNYNAYESYKYPGMFIALSKNGKTKKGNRVSPTMKVTHFLPRL
# notes: Unglycosylated, 140 residues, about 14,000 Daltons; also called truncated mammalian growth factor; truncated protein
# B2: K-FGF (full-length mature human growth factor) (ligand)
# chain: APTAPNGTLEAELERRWESLVALSLARLPVAAQPKEAAVQSGAGDYLLGIKRLRRLYCNVGIGFHLQALPDGRIGGAHADTRDSLLELSPVERGVVSIFGVASRFFVAMSSKGKLYGSPFFTDECTFKEILLPNNYNAYESYKYPGMFIALSKNGKTKKGNRVSPTMKVTHFLPRL
# notes: also called full-length K-FGF; FGF-4
# What was measured:
# FGF receptor-1 (flg) [1] = target: T1, FGF receptor-1 (flg) (UniProt P16092 22-822, limits assumed); assay: Scatchard analysis, 125I-labeled ligand on CHO 4-1 cells expressing FGF receptor-1, 4 C
# T1 construct: whole, on cells; also called flg receptor; CHO 4-1 cells
# T1 sequence (P16092 22-822 limits assumed): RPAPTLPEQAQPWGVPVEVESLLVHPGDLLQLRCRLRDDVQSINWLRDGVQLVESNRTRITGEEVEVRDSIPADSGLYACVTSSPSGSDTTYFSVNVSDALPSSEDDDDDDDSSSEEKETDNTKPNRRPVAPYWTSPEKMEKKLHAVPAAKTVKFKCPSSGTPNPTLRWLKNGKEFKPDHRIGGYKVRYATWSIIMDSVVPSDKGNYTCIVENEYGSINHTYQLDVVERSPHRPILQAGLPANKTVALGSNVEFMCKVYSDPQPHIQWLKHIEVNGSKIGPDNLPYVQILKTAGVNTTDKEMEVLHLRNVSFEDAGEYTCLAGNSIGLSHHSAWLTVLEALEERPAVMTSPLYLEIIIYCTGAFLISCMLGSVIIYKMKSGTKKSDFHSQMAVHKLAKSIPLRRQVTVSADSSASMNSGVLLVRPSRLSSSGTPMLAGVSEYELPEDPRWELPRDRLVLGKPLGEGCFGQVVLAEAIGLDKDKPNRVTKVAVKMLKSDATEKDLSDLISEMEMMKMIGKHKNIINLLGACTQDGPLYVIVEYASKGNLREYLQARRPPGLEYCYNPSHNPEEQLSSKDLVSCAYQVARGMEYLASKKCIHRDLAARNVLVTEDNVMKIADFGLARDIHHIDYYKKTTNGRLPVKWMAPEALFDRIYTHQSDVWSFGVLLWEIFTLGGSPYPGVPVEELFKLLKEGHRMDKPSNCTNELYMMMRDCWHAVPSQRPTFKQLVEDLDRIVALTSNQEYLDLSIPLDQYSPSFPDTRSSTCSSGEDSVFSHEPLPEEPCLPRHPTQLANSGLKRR
# Description: Scatchard analysis of the binding of K-FGF and K-FGF-140 was performed on CHO 4-1 cells expressing the FGF receptor-1 as follows. Cells at 4.8×10^5/35mm dish were incubated at 4° C. with DMEM containing 0.15% gelatin, […].
# In FIG. 7, Scatchard analysis of binding to high affinity receptors gave a straight line, indicating a single class of binding sites.
# FGF receptor-2 (bek) = target: T2, FGF receptor-2 (bek) (UniProt P21803 22-821, limits assumed); assay: competition with 125I-bFGF on CHO 3-7.5 cells expressing FGF receptor-2
# T2 construct: whole, on cells; also called CHO 3-7.5 cells
# T2 sequence (P21803 22-821 limits assumed): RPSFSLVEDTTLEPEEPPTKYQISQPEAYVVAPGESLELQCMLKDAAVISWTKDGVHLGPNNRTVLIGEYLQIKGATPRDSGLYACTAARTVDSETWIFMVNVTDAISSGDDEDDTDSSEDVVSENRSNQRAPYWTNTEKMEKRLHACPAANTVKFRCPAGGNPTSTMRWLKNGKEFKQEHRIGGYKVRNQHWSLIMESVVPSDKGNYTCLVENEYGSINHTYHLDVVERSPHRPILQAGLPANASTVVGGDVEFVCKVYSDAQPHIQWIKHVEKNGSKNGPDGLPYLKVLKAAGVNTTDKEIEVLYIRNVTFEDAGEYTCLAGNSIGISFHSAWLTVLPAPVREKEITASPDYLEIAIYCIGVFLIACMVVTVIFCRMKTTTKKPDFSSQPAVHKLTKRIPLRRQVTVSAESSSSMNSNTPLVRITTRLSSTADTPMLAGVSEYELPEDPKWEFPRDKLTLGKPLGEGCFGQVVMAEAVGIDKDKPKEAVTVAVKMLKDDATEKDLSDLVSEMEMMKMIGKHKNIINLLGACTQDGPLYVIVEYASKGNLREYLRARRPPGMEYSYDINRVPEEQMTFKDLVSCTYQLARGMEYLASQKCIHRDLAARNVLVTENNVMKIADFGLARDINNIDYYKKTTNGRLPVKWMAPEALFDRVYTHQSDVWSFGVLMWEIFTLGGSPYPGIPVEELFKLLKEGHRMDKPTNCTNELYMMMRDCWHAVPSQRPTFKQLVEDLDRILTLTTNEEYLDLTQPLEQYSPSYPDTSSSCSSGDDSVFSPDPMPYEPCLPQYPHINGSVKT
# FGF receptor-1 (flg) [2] = target: T1, FGF receptor-1 (flg); assay: competition with 125I-bFGF on CHO 4-1 cells expressing FGF receptor-1
Binder,Kd (FGF receptor-1 (flg) [1]),fold higher affinity than full-length K-FGF (FGF receptor-1 (flg) [1]),fold higher affinity than bFGF or full-length K-FGF (FGF receptor-2 (bek)),fold more competitor needed than bFGF or K-FGF-140 (FGF receptor-1 (flg) [2])
B1,~0.095 nM,~3 fold,~3 fold,–
B2,~0.285 nM,–,–,~8 fold
